Experimental findings from patent US20120041177A1 (SPIBER TECHNOLOGIES AB C O RISING, published 2012) are described below.

Data set [1] concerns the molecule itself. As to the kind of experiment: self-association; dynamic light scattering and turbidimetry; reversed by an increase of pH, blocked by high levels of salt. The method, then: The effect of pH and ionic strength on the hydrodynamic diameter of NT and NTΔHis6 (to exclude that pH dependent effects are caused by His at position 6) was measured at 25±0.1° C. in a Zetasizer Nano S from Malvern Instruments (Worcestershire, UK) equipped with a 633 nm HeNe laser. The buffers were filtered through nylon filters prior to use. The sample volume was 50 μl and ZEN2112 low glass cuvettes were used. The attenuation and measurement positions from the cuvette wall (4.65 mm) were kept constant for all analyses. Six scans were performed for each sample. All samples were analyzed in triplicate. The hydrodynamic diameter (dH) was calculated using the General Purpose algorithm in the Malvern software for DLS analysis, which correlates the diffusion coefficient to the hydrodynamic diameter through the Stokes-Einstein equation: […]
NT was subjected to dynamic light scattering at pH 6-7 and 0-300 mM NaCl. See also Table 3

Data set [2] deals with the molecule itself. Kind of data set: self-polymerisation at pH 6; macroscopic formation, SEM and turbidimetry.
The target of data set [3] is T1, NT-REP4-CT.
T1 construct: Stood in the assay as a solid fiber (about 0.5 cm, about 50 ug) or as a cast film; also called NT4RepCT
T1 chain: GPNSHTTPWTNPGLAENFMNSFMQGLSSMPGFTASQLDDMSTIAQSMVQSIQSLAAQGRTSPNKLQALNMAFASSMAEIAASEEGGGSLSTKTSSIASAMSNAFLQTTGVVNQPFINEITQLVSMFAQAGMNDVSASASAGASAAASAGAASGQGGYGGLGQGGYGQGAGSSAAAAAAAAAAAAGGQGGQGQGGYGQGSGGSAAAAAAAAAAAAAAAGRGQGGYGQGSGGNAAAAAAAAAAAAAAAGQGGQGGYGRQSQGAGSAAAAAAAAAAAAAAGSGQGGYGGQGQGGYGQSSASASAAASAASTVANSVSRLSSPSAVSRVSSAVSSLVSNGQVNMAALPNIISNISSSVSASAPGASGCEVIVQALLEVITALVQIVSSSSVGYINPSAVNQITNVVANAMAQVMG
Kind of data set: capture of soluble protein on fibers at pH 6, release at pH 7, SDS-PAGE; 300 mM NaCl decreased capture at pH 6. The method, then: (§1) Fibers (˜0.5 cm long, ˜50 ug) of NT-REP₄-CT (SEQ ID NO 20), NT₂-REP₄-CT (SEQ ID NO 23) and REP₄-CT (SEQ ID NO 2, control) were submerged in 100 μl solution of 5 mg/ml soluble NTHis (SEQ ID NO 30) or NT₂-Brichos (SEQ ID NO 32) at pH 8 for 10 minutes. The pH was decreased by addition of 400 ul sodium phosphate buffer (NaP) to pH 6 and incubated for 10 minutes to allow assembly of soluble NT to the fiber. The fibers were transferred to 500 μl of NaP at pH 6, and washed twice. Finally, the fibers were transferred to 500 μl of NaP at pH 7, and incubated 10 minutes to allow release of soluble NT. The same was done in the presence of 300 mM NaCl in all pH 6 NaP buffers. Samples from the different solutions were analysed on SDS-PAGE.

Data set [4] deals with T2, NT2-REP4-CT.
T2 construct: Stood in the assay as a solid fiber; also called NTNT-REP-CT; HisNTNT4RepCT
T2 chain: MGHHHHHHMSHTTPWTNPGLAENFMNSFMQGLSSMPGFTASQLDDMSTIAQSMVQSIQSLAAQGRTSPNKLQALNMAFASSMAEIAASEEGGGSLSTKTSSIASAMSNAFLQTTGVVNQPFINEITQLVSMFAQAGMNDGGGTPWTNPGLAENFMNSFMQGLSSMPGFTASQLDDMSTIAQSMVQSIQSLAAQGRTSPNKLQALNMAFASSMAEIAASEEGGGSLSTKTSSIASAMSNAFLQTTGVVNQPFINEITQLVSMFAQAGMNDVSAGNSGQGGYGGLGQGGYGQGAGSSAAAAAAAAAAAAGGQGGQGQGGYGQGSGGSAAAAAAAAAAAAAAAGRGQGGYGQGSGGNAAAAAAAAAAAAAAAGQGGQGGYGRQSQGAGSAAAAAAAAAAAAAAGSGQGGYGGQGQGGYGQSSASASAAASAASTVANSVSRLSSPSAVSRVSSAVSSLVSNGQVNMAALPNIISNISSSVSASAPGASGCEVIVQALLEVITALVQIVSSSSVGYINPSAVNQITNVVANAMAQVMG
The data set is described as above. The method, then: as §1

Data set [5] deals with the molecule itself. Kind of data set: self-polymerisation at pH 6.
Data set [6] deals with the molecule itself. Kind of data set: self-polymerisation at pH 6; macroscopic formation and SEM. The method, then: Conditions for fiber formation were essentially as described in Stark, M. et al. Biomacromolecules 8, 1695-1701, (2007). Approximately 25 μM of each protein was incubated in 20 mM Na phosphate buffer at pH 7 or 6, with or without 300 mM NaCl. At different time points, samples were applied on SEM stubs, where they were air-dried and vacuum-coated with gold and palladium. The samples were photographed with a LEO 1550 FEG microscope (Carl Zeiss, Oberkochen, Germany) using an acceleration voltage of 5 kV.
The arrows in FIG. 3 indicate when macroscopic formations first were detected, showing that at pH 7 the presence of NT delays polymerisation, while at pH 6 it accelerates polymerisation. This is independent of whether the C-terminal fragment (filled circle) is present or not (indicated by the striped circle). Moreover, the presence of NT results in more ordered polymerisation, exemplified by the scanning electron micrographs in FIG. 3, which are representative early polymers for all constructs at pH 7 (above time scale) or for NT4RepCT at pH 6 (below time scale).

B1: NT, N-terminal fragment of major ampullate spidroin (MaSp) 1 from Euprosthenops australis (other)
chain: GSGNSHTTPWTNPGLAENFMNSFMQGLSSMPGFTASQLDDMSTIAQSMVQSIQSLAAQGRTSPNKLQALNMAFASSMAEIAASEEGGGSLSTKTSSIASAMSNAFLQTTGVVNQPFINEITQLVSMFAQAGMNDVSA
notes: Expressed as a C-terminal fusion to His6TrxHis6 and released by thrombin
On to B1, for which, in data set [1], the binding result is “binds”.

B2: NT4Rep (other)
chain: GSGNSHTTPWTNPGLAENFMNSFMQGLSSMPGFTASQLDDMSTIAQSMVQSIQSLAAQGRTSPNKLQALNMAFASSMAEIAASEEGGGSLSTKTSSIASAMSNAFLQTTGVVNQPFINEITQLVSMFAQAGMNDVSASASAGASAAASAGAASGQGGYGGLGQGGYGQGAGSSAAAAAAAAAAAAGGQGGQGQGGYGQGSGGSAAAAAAAAAAAAAAAGRGQGGYGQGSGGNAAAAAAAAAAAAAAAGQGGQGGYGRQSQGAGSAAAAAAAAAAAAAAGSGQGGYGGQGQGGYGQS
notes: Non-natural minispidroin derived from Euprosthenops australis MaSp1; Released from His6TrxHis6 by thrombin
With B2, the binding result in data set [2] is given as “binds”.

B3: NT2-Brichos (other)
chain: MGHHHHHHMSHTTPWTNPGLAENFMNSFMQGLSSMPGFTASQLDDMSTIAQSMVQSIQSLAAQGRTSPNKLQALNMAFASSMAEIAASEEGGGSLSTKTSSIASAMSNAFLQTTGVVNQPFINEITQLVSMFAQAGMNDGGGTPWTNPGLAENFMNSFMQGLSSMPGFTASQLDDMSTIAQSMVQSIQSLAAQGRTSPNKLQALNMAFASSMAEIAASEEGGGSLSTKTSSIASAMSNAFLQTTGVVNQPFINEITQLVSMFAQAGMNDVSAGNSEHLVTTATFSIGSTGLVVYDYQQLLIAYKPAPGTCCYIMKIAPESIPSLEALTRKVHNFQMECSLQAKPAVPTSKLGQAEGRDAGSAPSGGDPAFLGMAVSTLCGEVPLYYI
notes: Soluble fusion protein with His6, used at 5 mg/ml; also called NT-NT-Brichos; NTNTBrichos
For the molecule B3, the binding result in data set [3] and in data set [4] was “binds” throughout.

B4: NT5Rep (other)
chain: GSGNSHTTPWTNPGLAENFMNSFMQGLSSMPGFTASQLDDMSTIAQSMVQSIQSLAAQGRTSPNKLQALNMAFASSMAEIAASEEGGGSLSTKTSSIASAMSNAFLQTTGVVNQPFINEITQLVSMFAQAGMNDVSASASAGASAAASAGAPGYSPAPSYSSGGYASSAASAAAAAGQGGPGGYGPAPNQGASSAAAAAAGSGQGPSGPYGTSYQISTQYTQTTTSQGQGYGSSSAGAAAAGAAGAGQGGYGGQGQGGYGQGAGGAAAAAAAAAAAAAAAGQGGQGGGGYGQGGQGGQGGQGQGGYGQGAGSSAAAAAAAAAAAAAAGRGQGGYGPGSGG
notes: as for B2
As to B4, in data set [5], the binding result is listed as “binds”.

B5: NTHis (other)
chain: MSHTTPWTNPGLAENFMNSFMQGLSSMPGFTASQLDDMSTIAQSMVQSIQSLAAQGRTSPNKLQALNMAFASSMAEIAASEEGGGSLSTKTSSIASAMSNAFLQTTGVVNQPFINEITQLVSMFAQAGMNDVSASASAGASAAASAGAAALEHHHHHH
notes: Soluble protein, used at 5 mg/ml; also called NT as an N-terminal fusion to His6; soluble NT
Take B5: the binding result in data set [3] and in data set [4] was “binds” throughout.

B6: NT4RepCT (as an N-terminal fusion to His6) (other)
chain: MKASHTTPWTNPGLAENFMNSFMQGLSSMPGFTASQLDDMSTIAQSMVQSIQSLAAQGRTSPNKLQALNMAFASSMAEIAASEEGGGSLSTKTSSIASAMSNAFLQTTGVVNQPFINEITQLVSMFAQAGMNDVSASASAGASAAASAGAASGQGGYGGLGQGGYGQGAGSSAAAAAAAAAAAAGGQGGQGQGGYGQGSGGSAAAAAAAAAAAAAAAGRGQGGYGQGSGGNAAAAAAAAAAAAAAAGQGGQGGYGRQSQGAGSAAAAAAAAAAAAAAGSGQGGYGGQGQGGYGQSSASASAAASAASTVANSVSRLSSPSAVSRVSSAVSSLVSNGQVNMAALPNIISNISSSVSASAPGASGCEVIVQALLEVITALVQIVSSSSVGYINPSAVNQITNVVANAMAQVMGKLAAALEHHHHHH
notes: also called NT4RepCTHis
Regarding B6, the binding result in data set [6] was “binds”.
